Measured values from the supplement of paper PMC9170038.

System: K4 kissing-loop RNA reporter
Test: apparent KD of K4 kissing-loop reporter; higher = weaker reporter binding
Conditions: Eterna round: R107
Experimental: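 RNA-MaP round R107: designed RNA switches with theophylline, tryptophan, arginine or FMN aptamers are transcribed on-chip within common flanks. They are titrated with a labelled K4 kissing-loop RNA reporter in RNA-MaP buffer (100 mM Tris pH 7.5, 80 mM KCl, 4 mM MgCl2), without ligand or with the indicated ligand. Median apparent KD per design.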

[1] = input ligand: theophylline 20 uM
[2] = input ligand: tryptophan 2.4 mM
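Further: bound reporter read as fluorescence of individual clusters on recovered sequencing chips by microscopy, with normalized cluster intensities fitted with a binding model.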

Sequence	apparent KD of K4 kissing-loop reporter (input ligand: FMN 200 uM) [nM]	apparent KD of K4 kissing-loop reporter (input ligand: arginine 13.2 mM) [nM]	apparent KD of K4 kissing-loop reporter (input ligand: none) [nM]	apparent KD of K4 kissing-loop reporter [1] [nM]	apparent KD of K4 kissing-loop reporter [2] [nM]
GGUAGCAUGGCGGCCGCCACUGCGAAUGACGGCCACGUGAAAGUUGCCGCAGAGUGAUGUUCUGGCAGGACCGGGCCAUGCUACC	432	372	515	477	354
CUUUGGAGUGAUGUUCCAGGUUGUACGGAUACCAGCCAAGCCAGAGGCCCUUGGCAGCCGAGUAUUGCAGUGAUGUUGCGAUGGG [Same State Theophylline A GF 2]	304	239	282	335	261
ACGAAGGAUGGAAGGAGCGCUCGUCAGUCCUGCGAGUGAUGUUCGUGGGUAAAUAGUCGCGAGCAGGUAGGUCGCCAUCUUGAGC [Isarteza]	133	104	119	112	108
AGAUGUUCCUGGGAUACCAGUCGGAGUCUCAGAGCUCGGAGUGAUGUUCUGGGAUGUUUCGGCCCUUGGCAGCUCUGGGACUCCC [#2 Exclusion - Theophylline B Attempt #24 (HarryS)]	1120	624	642	735	726
UCAAGAGAACUUAAAUUUGAUCAACGCUCGCGAGGACCGGUACGGCCGCCACUCGACCGUUAGUGCCUCAUCCAGUGAUGUUGGG [theeternabot_sameState_KL_Trp_A_6]	537	394	500	508	476
GGCUUGCCAGUGAUGUUGGCAUAUUCUGAAGGAGCGCGUGAAAACGCAGGUAGGUCGCAGAACCUUGCCAACUAUUUUAGUUGCC [Ex Arginine A K4 26]	242	210	237	334	210
GCUAUGGUAGGAAGGAGCGCUACUUUAUUUUUACGAGUGAUGUUCGGUAGUAGAGUGUUAAAGCAGGUAGGUCGCCUACUAUAGC [Arginine B K4 18]	217	132	140	172	146
CGCAGUGAUGUUGCGAAUAUAAUGCAUUCAGAGGAUAUUCGUUUGGGAAGAAGGCUGAAUCGUUCUUCGAGUGAUGUUCGAGGAA [Same State FMN A GF 17]	141	133	154	136	132
AAUGUGCAGGGAAGGAGCGUAGUCCAGUGCUGUUGGAGUUAGAUACCAGUGAUGUUGGUUAUACAGGUAGGUCGCCCUAGAGCGC [whbob_Ex_Arginine_B_2th162]	114	119	124	141	96.3
AGCAGCAAAUCCUAGUGAUGUUAGGAUAUGUAGGAUAUCGGGAUACCGAGAAGGACAGAAGGAGGAGUGAUGUUCCUCAGCUGCA [FmnAX 23 #DoubleAptamer #DoubleK4 #SwitchBubble]	116	106	104	102	94.9
GGAUAGGACAGAGGAUAUCCAGUGAUGUUGGAGAAUUCUCCUUAAACAUGUCACAAAAGUGGCAUGGGAGAAGGCUGUCCUAUCG [Mod of Eli's FmnBX 29 v1]	217	123	122	138	105
AGUCGCAGUGAUGUUGCGAUUCCGUUGAGGGAGGAUAUUGGUAAUACAAGAAGGCCCGGCUGCGGGUGAUGUUCGCAAUAGGGCC [Exclusion FMN A GF19]	138	108	117	112	105
UGUCAUUGGUCGGCCGCCACUUCGUGUGGAGUGAUGUUUUGUAGGACGGAUCGAAAGAUCUGUCGAAGGACCGGGACCGAUGACU [FiskerMod 19 - Jieux - Same State - Tryptophan B]	96.8	85.8	87.6	33.5	285
AGGUUUUGAUUAGGAUAUGCAUUGACGAUGAGAAUAUAGUGAUGUUAUAUACUACGAAUUAGUAAAGUAGAAGGGAUUGAGGUUU [SSFMNB.aA]	353	275	324	368	241
GCGCGGCAGGCGGCCGCCACUCUGACGAGCCACAGUGAUGUUGUGGUCGGAGUAACGUCUUCAUAGAGGACCGGGUUUGUUGUUC [Same State Typtophan A GF 26]	224	212	239	290	230
UUGACCUACUCAGGAUAUCCGCAGUGAUGUUGCGGUUGGCCUGAGCGACAUGAAAAUCUUACUACAGGAGAAGGGAGAGGGUUAC [Anraerce]	106	79.8	134	88.5	96.9
UAGGAUUUUUCGGCCGCCACUCUAGAUUCUGUGUAUUAUCUACGACUUGAAGUGAUGUUUCAGGAGAGGACCGGGAAGAUAUAAC [theeternabot_exclusion_KL_Trp_B_27]	226	210	238	307	225
AAUGCAUAGUGAAGGAGCGCGAUAAGCAGUGAUGUUGCUUAGCUAUUAUUCAUUAUUUUAACGCAGGUAGGUCGCACUUUGCAUA [JR_ExcArginiB_Sub015]	131	127	128	151	128
GCAAAACGCAGUGAUGUUGCGAUCUCGGAAGGAGCGCGUGAAAACGCAGGUAGGUCGCCGAGUCAGUGAGUAUCUCGCUGUUUGC [Arginine A K4 19]	383	352	489	455	322
GAUGGCAUGCGAGGAUAUUGUACGGAGUGAUGUUCCCAUUAUCCAGGUAUUCGAUUGACGAGUAUCCAAGAAGGCGCAUGCCAUC	248	121	136	115	138
GGAUCCUAGGCGGCCGCCACUCCAUCGUACCGAAAGGUAUGAUACCGAGUGAUGUUCGGUUGGAGGAGGACCGGGCCUAGGAUCC [#2 Exclusion - Tryptophan B Attempt #3 (HarryS)]	147	112	124	127	112

Sequence	apparent KD of K4 kissing-loop reporter (input ligand: FMN 200 uM) [nM]	apparent KD of K4 kissing-loop reporter (input ligand: arginine 13.2 mM) [nM]	apparent KD of K4 kissing-loop reporter (input ligand: none) [nM]	apparent KD of K4 kissing-loop reporter [1] [nM]	apparent KD of K4 kissing-loop reporter [2] [nM]
CAUAGGAAACUAUGUAUCUCUCUGACUGAAGGAGCGCGUGAAAACGCAGGUAGGUCGCAGAAUUUAACAGAGAGUGAUGUUCUCU [Ex Arginine A K4 9]	310	259	319	277	258
GAUCGAUGUCAGGAUACCAGCGGAAUCGUCGGAGACUCGAGUGGAGUGAUGUUCCCAGCACGCCCUUGGCAGCCUUGUUUAAGAU [theeternabot_sameState_KL_Theo_B_19]	312	199	318	404	310
AUUUUAAUCGCAGAUACCAGUCCAGAAUGAAUACUAUAGUGAUGUUAUAAUAAAGGGAAGGACCCUUGGCAGCUGUACUAUAUUA [AstrosSsTheB#9]	467	287	445	304	281
UGUCAUUGGUCUGAUACCAGUUAGACCGAUAAGGUCAAAACUGGAGUGAUGUUCCCAAAUAACCCUUGGCAGCAGACCGAUGACU [TheoBS 5 #SwitchBubble #StaticStem]	452	116	185	249	241
UUCAGGUGUUCGGCCGCCACUCCAGUGAUGUUGGAGUGGCUUCACAAGGGCCAGGACAAUGUAAGGAGGACCGGGAAUAUCUCAG [Onisle]	97.9	96.1	132	77.3	111
AGUGAUGUAUGGCGGUUGGUCACUUAGGAUCAGGAUAUAUAAACAAAUAGAAGGGAUGGCGGAGUGAUGUUCCGCCGGCCGCCAU [FMN A Exl V2]	173	130	177	191	170
GGGUGGUAGGCGGCCGCCACUCUGAGCACCCACUGAGUGAUGUUCGUGGCGUAAGCCUGUUCUUAGAGGACCGGGUUUGUUGUUC [Exclusion Tryptophan B GF 17]	207	88	178	128	144
UGAUAAUGCAGUGAUGUUGCUAGAAACGAUACCAGUUAAGAAAAGAACCCUUGGCAGCGUAAAGUGCGCUCUAAUGAGUGUGCUU [#10 K4 Theophylline A Same State]	164	195	194	212	132
UGAUACCAGACGGCCGCCACUGCGCCAGUCAAUGACUGAGCGCGGUGGCGCUCAGUGAUGUUGAGCAGGACCGGGUCUGGUAUCU [Mod of Eli's TrypBX 8 v5]	149	126	146	144	147
AAAUUUAAUAUAUUUAAUUAAUUAUGUGAUACCAGACAUUUAUAAGUCCCUUGGCAGCACAAUGCAGUGAUGUUGCAUAUAAUAA [JR_SSTheophyA_Sub012]	64.3	103	82.1	77.5	67.5
AUUAAUAACAGAGGAUAUGCAUUUUUAUUAUUUUUAAAUAUUAAAUGCAGUGAUGUUGCAUAUUAAGCAGAAGGCUGAUUUAUUU [JR_SSFMNB_Sub012]	117	271	211	279	147
CCCUUGGUAUAUCGGUAUGUAUAAGCGGAUACCAGCCAGGACAACGGCCCUUGGCAGCCGGGCAGGCAGAGUGAUGUUCAUGCUA [theeternabot_exclusion_KL_Theo_A_22]	385	368	516	535	346
AUUUUUUUGUCAGGAUAUUAGUGUUGGUUUGGUUUGUUAGUGAUGUUGAUAUUUGUUUUAUGUAUUUAAGAAGGGAUUUAGAUGU [zaahullin]	428	330	335	407	293
UUAGAUGAUUCAUCAAGAUUGAUGAGCAAACGAGGACCGGUACGGCCGCCACUCGAGUGAUGUUCGAGAAGCUCAUCAAUCAAUU [AK4.2 EXC Tryptophan A]	166	120	139	127	370
AAUAUAUAGUGAAGGAGCGCGAUAAGCAGUGAUGUUGCUUAGCUAUUAUUCAUUAUUUUUACGCAGGUAGGUCGCACUAUAUAUA [JR_ExcArginiB_Sub014]	138	128	144	133	139
GCCGUACGCAUGGAUACCAGUCUUUCACGACUGGACAUGGAGUGAUGUUUCGUGAUGCUAGACCCUUGGCAGCCAUGCGUACGGC	255	198	242	329	210
UGACUGGACUGAAGGAGCGCCACGGUCAUAGACCGAAUAAGGAGUGAUGUUCCACAUAAAAGGCAGGUAGGUCGCAGUCUAGUCU [ArgBS 2 #SwitchBubble #StaticStem]	121	113	107	98.1	101
GGGAUGUAGUGAUGUUAUAUUGGAUGUAGACGAGGACCGGUACGGCCGCCACUCGUGAUGGCUGCUAGCACGUUUCGAUGUUUGC [ExTryptoA.Cs]	410	429	424	433	330
GCUAUGGUUGGAAGGAGCGUUUAAUUACUAAUAAGAGUGAUGUUCGAUAGUAGGUAAUUGUAGCAGGUAGGUCGCCAACUAUAGC [KL-Arg B25]	215	232	186	222	224
UGACAUUGCUCAGAUACCAGACUUGAGGAUCACCCAGGUGCCAAAUAAACGUACAUAAAAGUCCCUUGGCAGCUGAGCAAUGUCU [TheoBX 11]	64.8	24	55.9	85.8	76.5
GGAUAGGACAGAGGAUAUGGAGAGUCUACAAAGUAGGCUCAUAAUCCUUGAAUGGAAGUGAUGUUUCUAGAAGGCUGUCCUAUCG [FmnBX 18 - #SwitchBubble #StaticStem #Palindromic]	758	135	143	148	136
